In the supplement of paper PMC7125110:
± gives the standard error. This sample holds only a part of the variants without activity.

B1: glmS ribozyme (parent)
chain: AUAAAAGCGCCAGAACUACAGAAAUGUAGUUGACGAGGAGGAGGUUUAUCGAAUUUUCGGCGGAUGCCUCCAAA

Columns and labels:
Details in all cases: with glucosamine-6-phosphate
glucosamine-6-phosphate [1] = variants of: B1; assay: self-cleavage kobs at 40 uM GlcN6P; higher = faster cleavage; RNA array
How it was run: (§1)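 Weighted Michaelis–Menten fits across concentrations supplied kcat and KM, based on kobs from one- or two-exponential decay fits to normalised per-tile medians. The data came from barcoded ribozyme variants transcribed in situ by E. coli RNA polymerase on sequenced MiSeq chips and tracked at 37 °C by a hybridised Cy3 probe. Glucosamine-6-phosphate (40 μM to 10 mM) in HEPES/KCl/Mg(OAc)2 buffer was flowed in.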

glucosamine-6-phosphate [2] = variants of: B1; assay: self-cleavage kobs at 160 uM GlcN6P; higher = faster cleavage; RNA array
How it was run: as §1

glucosamine-6-phosphate [3] = variants of: B1; assay: self-cleavage kobs at 640 uM GlcN6P; higher = faster cleavage; RNA array
How it was run: as §1

glucosamine-6-phosphate [4] = variants of: B1; assay: self-cleavage kobs at 2500 uM GlcN6P; higher = faster cleavage; RNA array
How it was run: as §1

glucosamine-6-phosphate [5] = variants of: B1; assay: self-cleavage kobs at 10000 uM GlcN6P; higher = faster cleavage; RNA array
How it was run: as §1

Row | Variant | self-cleavage kobs at 40 uM GlcN6P (glucosamine-6-phosphate [1]) [s⁻¹] | self-cleavage kobs at 160 uM GlcN6P (glucosamine-6-phosphate [2]) [s⁻¹] | self-cleavage kobs at 640 uM GlcN6P (glucosamine-6-phosphate [3]) [s⁻¹] | self-cleavage kobs at 2500 uM GlcN6P (glucosamine-6-phosphate [4]) [s⁻¹] | self-cleavage kobs at 10000 uM GlcN6P (glucosamine-6-phosphate [5]) [s⁻¹]
1 | G9U G35A | < 1e-05 | < 1e-05 | < 1e-05 | < 1e-05 | < 1e-05
2 | C10A U47G G63A | < 1e-05 | – | – | – | < 1e-05
3 | C10G C50G G63A C71U | 6.86e-05 ± 1.9e-05 | – | – | – | 5.34e-05 ± 1.7e-05
4 | C10U A52C U57G | < 1e-05 | – | < 1e-05 | < 1e-05 | < 1e-05
5 | C10G C16G G35C A39C | < 1e-05 | – | – | – | < 1e-05
6 | G9U G37A | < 1e-05 | < 1e-05 | – | < 1e-05 | –
7 | C11A A14G A52C G63A | < 1e-05 | – | – | – | –
8 | G9U G29U A42G U65G | < 1e-05 | – | – | – | < 1e-05
9 | G9C G29U | < 1e-05 | < 1e-05 | < 1e-05 | – | < 1e-05
10 | C10U G37C | < 1e-05 | – | < 1e-05 | – | < 1e-05
11 | C10U G37A | < 1e-05 | < 1e-05 | – | – | < 1e-05
12 | G9C C11A | < 1e-05 | < 1e-05 | – | – | –
13 | C10U C11U U56G G62U | < 1e-05 | – | – | – | < 1e-05
14 | G9A G29A U31A G35U A36C C70U | < 1e-05 | – | – | – | < 1e-05
15 | C10A G40C | < 1e-05 | < 1e-05 | < 1e-05 | – | < 1e-05
16 | C10A G40A | < 1e-05 | < 1e-05 | < 1e-05 | < 1e-05 | < 1e-05
17 | G9C G13C G35C | < 1e-05 | – | < 1e-05 | – | –
18 | G9C C11G G40A | < 1e-05 | – | – | – | < 1e-05
19 | G9C U54A U56G G66A | < 1e-05 | – | – | – | –
20 | C10G U55G | < 1e-05 | – | – | – | –
21 | C10U A14G A52U G60U | < 1e-05 | – | – | < 1e-05 | < 1e-05
22 | G9A A36C U49C | < 1e-05 | – | – | < 1e-05 | < 1e-05
23 | C10G A36C G43C | < 1e-05 | – | < 1e-05 | – | < 1e-05
24 | G9A U57G C67U | < 1e-05 | – | – | – | < 1e-05
25 | C10U G40A A48C | < 1e-05 | – | – | – | –
26 | C10A U30C | < 1e-05 | < 1e-05 | < 1e-05 | < 1e-05 | < 1e-05

Row | Variant | self-cleavage kobs at 40 uM GlcN6P (glucosamine-6-phosphate [1]) [s⁻¹] | self-cleavage kobs at 160 uM GlcN6P (glucosamine-6-phosphate [2]) [s⁻¹] | self-cleavage kobs at 640 uM GlcN6P (glucosamine-6-phosphate [3]) [s⁻¹] | self-cleavage kobs at 2500 uM GlcN6P (glucosamine-6-phosphate [4]) [s⁻¹] | self-cleavage kobs at 10000 uM GlcN6P (glucosamine-6-phosphate [5]) [s⁻¹]
27 | G9A A39C | < 1e-05 | < 1e-05 | – | < 1e-05 | –
28 | G9A U31G A39G A48C G60C | < 1e-05 | – | – | – | –
29 | G9C C71G | < 1e-05 | < 1e-05 | < 1e-05 | < 1e-05 | < 1e-05
30 | C10U A33U A52U | < 1e-05 | – | < 1e-05 | – | < 1e-05
31 | C10U A33C U47G G51U C58G A64U C70A | 7.66e-05 ± 2.4e-05 | – | – | – | 0.000101 ± 2.1e-05
32 | C10G G37A | < 1e-05 | < 1e-05 | < 1e-05 | – | < 1e-05
33 | G9U C11U C68U | < 1e-05 | – | – | – | –
34 | C10A C70G | 2.53e-05 ± 1e-05 | – | 0.000116 ± 1.8e-05 | – | –
35 | C10A G66U | < 1e-05 | < 1e-05 | – | – | –
36 | G9U G41U A42G A64U C71U | < 1e-05 | – | – | – | < 1e-05
37 | G9U U69C | < 1e-05 | – | – | < 1e-05 | –
38 | G9A U46G G62A | < 1e-05 | – | – | < 1e-05 | –
39 | G9U C68U C70U | < 1e-05 | < 1e-05 | < 1e-05 | < 1e-05 | < 1e-05
40 | G9A C34A G44U U54A C68A | < 1e-05 | – | – | – | –
41 | G9U A48G | < 1e-05 | < 1e-05 | < 1e-05 | – | < 1e-05
42 | C10U A36G C71G | < 1e-05 | – | – | – | < 1e-05
43 | G9A C70A | < 1e-05 | < 1e-05 | < 1e-05 | < 1e-05 | < 1e-05
44 | C10G G37U A42C | < 1e-05 | – | – | – | –
45 | C8U U65C | < 1e-05 | – | < 1e-05 | < 1e-05 | –
46 | G9C U31G U54C | < 1e-05 | – | – | – | –
47 | G9A A15G U30C | < 1e-05 | – | – | – | –
48 | C10U A14U C16G | < 1e-05 | – | – | – | –
49 | G9A C11G A53G | < 1e-05 | – | – | – | –
50 | G9U A12G G32U G43U U45A | < 1e-05 | – | – | – | –
51 | C10U G13C G40A | < 1e-05 | < 1e-05 | – | – | –
